# Results from article PMC5437018, “Mouse Rif1 is a regulatory subunit of protein phosphatase 1 (PP1)” (Scientific Reports, 2017).
# B1: Rif1 CRI (residues 2093–2190), purified, wild type (domain or fragment, mouse, UniProt Q6PR54 2093-2190, looked up)
# chain: TSPEKLELDSFGSVNESPSGMQQARCVWSPLASPSTSILKRGLKRSQEDEISPVNKIRRVSFADPIYQAGLADDIDRRCSVVRSHSSNSSPIIKSVKT
# notes: Rif1, mouse, CRI, residues 2093–2190; For NMR the same fragment was 15N or 15N/13C labelled; Printed mass 10.8 kDa; also called CR1; 15N-labeled CRI; source: recombinant, purified (TALON beads, tag cleaved by TEV protease)
# Key:
# Settings in all cases: both partners purified
# [1] = target: T1, Recombinant purified α-isoform of mammalian PP1 (residues 1–330), tag cleaved (mammalian, UniProt P62136 1-330); assay: ITC; CRI (140 µM) titrated into PP1 (18 µM), iTC200, 25 °C; 20 mM Tris-HCl pH 7.5, 200 mM NaCl, 1 mM MnCl2, 5 mM β-mercaptoethanol, 10% glycerol
# T1 construct: Protein phosphatase 1 catalytic subunit, α-isoform, 'mammalian', residues 1–330; synthetic gene (GenScript); Printed mass 37.5 kDa; Subcloned into pMAL-c2G under the Ptac promoter; also called PP1α; source: E. coli BL21 AI (RIL), purified (TALON, TEV cleavage, heparin Sepharose); not shown: His6, N-terminal, cleaved
# [2] = target: T1, Recombinant purified α-isoform of …; assay: SEC; analytical gel filtration on Superdex 75 in 20 mM Tris-HCl pH 7.5, 200 mM NaCl, 2 mM DTT, 1 mM MnCl2; PP1/CRI at molar ratios 1:1, 1:3 and 2:1
# [3] = target: T1, Recombinant purified α-isoform of …; assay: SPR; Biacore 3000; PP1 covalently coupled to a CM5 chip; Rif1 CRI, mutants and peptide injected at 20 µl/min in 10 mM Tris-HCl pH 7.5, 250 mM NaCl, 1 mM DTT, 2 mM MnCl2, 0.005% Tween 20; 1:1 binding model
# T1 sequence (P62136 whole entry, the tested form may be a part, canonical isoform): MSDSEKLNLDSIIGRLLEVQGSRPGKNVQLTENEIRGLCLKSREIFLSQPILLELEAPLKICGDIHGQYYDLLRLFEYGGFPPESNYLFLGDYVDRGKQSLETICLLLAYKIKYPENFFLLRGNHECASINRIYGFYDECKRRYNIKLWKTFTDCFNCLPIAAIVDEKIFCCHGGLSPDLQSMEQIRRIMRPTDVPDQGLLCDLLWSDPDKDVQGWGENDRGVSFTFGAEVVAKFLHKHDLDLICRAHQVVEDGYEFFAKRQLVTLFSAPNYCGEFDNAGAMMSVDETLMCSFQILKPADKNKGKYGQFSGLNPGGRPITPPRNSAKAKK
binder,measurement,setting,value
B1,Kd,[1],22.8 ± 4.2 nM
same,dH,[1],-23.8 ± 0.129 kcal/mol
same,stoichiometry N,[2],1
same,Kd,[3],9.7 ± 1.7 nM
